{
  "source": "patent US20250073311A1",
  "about": "“DOSAGE REGIME” (ZEALAND PHARMA A/S, priority 2021, published 2025)",
  "key": {"[1]": {"biological_target": "T1, human GLP-2 receptor (hGLP2-R) (human, UniProt O95838)", "T1 sequence": "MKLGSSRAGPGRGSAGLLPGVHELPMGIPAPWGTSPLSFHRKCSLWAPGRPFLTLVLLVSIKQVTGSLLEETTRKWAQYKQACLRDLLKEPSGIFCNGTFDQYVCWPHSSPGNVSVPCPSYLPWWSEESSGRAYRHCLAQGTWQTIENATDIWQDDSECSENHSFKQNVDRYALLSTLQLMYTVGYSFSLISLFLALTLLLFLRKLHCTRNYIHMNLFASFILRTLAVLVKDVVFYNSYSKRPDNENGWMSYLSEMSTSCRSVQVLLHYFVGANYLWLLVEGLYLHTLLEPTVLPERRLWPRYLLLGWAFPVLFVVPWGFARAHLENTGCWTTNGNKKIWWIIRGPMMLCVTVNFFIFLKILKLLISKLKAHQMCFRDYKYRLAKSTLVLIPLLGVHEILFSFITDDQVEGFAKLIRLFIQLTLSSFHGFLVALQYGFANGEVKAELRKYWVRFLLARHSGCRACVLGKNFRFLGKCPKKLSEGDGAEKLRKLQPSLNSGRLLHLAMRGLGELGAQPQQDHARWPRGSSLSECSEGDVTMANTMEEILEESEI"}, "[2]": {"biological_target": "human glucagon-like peptide 1 receptor (GLP-1R) (human) (UniProt P43220)"}},
  "data": [
    {"substance": "Teduglutide (from UniProt P01275) (peptide)", "values": [
      {"measurement": "EC50 GLP-2 (nM), cAMP AlphaScreen", "setting": "[1]", "result": 0.027, "unit": "nM"},
      {"measurement": "EC50 GLP-1 (nM), cAMP AlphaScreen", "setting": "[2]", "result": 39, "unit": "nM"}
    ]}
  ]
}
